According to paper PMC12168268, “Targeted inhibition of Ninjurin2 promotes chemosensitivity in chemoresistant gastric cancer by suppressing cancer-initiating cells” (Biomarker Research, 2025):

Biological target: T1, recombinant human Periostin (human, UniProt Q15063 22-836)
T1 construct: Periostin, human, recombinant; source: bought: Sino Biological
T1 sequence (looked up): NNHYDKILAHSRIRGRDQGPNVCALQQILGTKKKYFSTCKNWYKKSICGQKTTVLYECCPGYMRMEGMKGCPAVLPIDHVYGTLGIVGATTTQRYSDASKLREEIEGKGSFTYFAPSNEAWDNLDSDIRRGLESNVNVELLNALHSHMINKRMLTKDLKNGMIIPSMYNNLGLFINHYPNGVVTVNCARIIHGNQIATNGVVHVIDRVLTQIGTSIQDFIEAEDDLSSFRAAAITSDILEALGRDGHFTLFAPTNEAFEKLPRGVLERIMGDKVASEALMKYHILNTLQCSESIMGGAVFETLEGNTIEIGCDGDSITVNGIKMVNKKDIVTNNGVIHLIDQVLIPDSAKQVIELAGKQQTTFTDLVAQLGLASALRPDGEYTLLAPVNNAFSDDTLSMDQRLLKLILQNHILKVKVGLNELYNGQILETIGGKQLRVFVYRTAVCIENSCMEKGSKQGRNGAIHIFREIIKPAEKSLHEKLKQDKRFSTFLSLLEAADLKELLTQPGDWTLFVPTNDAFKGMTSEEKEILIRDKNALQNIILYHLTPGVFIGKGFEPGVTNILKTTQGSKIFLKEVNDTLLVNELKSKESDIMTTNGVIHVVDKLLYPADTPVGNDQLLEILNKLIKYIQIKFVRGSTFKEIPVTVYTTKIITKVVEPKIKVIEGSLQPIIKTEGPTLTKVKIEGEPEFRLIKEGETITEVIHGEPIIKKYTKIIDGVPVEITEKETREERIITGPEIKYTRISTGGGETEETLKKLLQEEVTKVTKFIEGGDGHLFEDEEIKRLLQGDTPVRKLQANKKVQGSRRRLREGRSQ
Test: SPR; Biacore 3000; NINJ2 extracellular domain immobilised by amine coupling on a carboxymethyldextran chip (CMD200M); periostin injected at 231, 116, 58, 29 and 14 nM, 30 µL/min, 2 min association, 5 min dissociation; HBS-T (10 mM HEPES, 150 mM NaCl, 0.005% Tween20) pH 7.4
Settings: both partners purified

- Kd: 16.9 nM
B1: extracellular domain (Met1-Thr65) of recombinant human NINJ2 (domain or fragment, UniProt Q9NZG7 1-65, looked up)
chain: MESARENIDLQPGSSDPRSQPINLNHYATKKSVAESMLDVALFMSNAMRLKAVLEQGPSSHYYTT
notes: Ninjurin-2 (NINJ2), human, extracellular domain, residues Met1-Thr65; also called NINJ2 extracellular domain; source: bought: R&D Systems
